Here are results for two substances from publication PMC9527590, “Functional analysis of the N‐terminal region of acetylxylan esterase from Caldanaerobacter subterraneus subsp. tengcongensis” (FEBS Open Bio, 2022).

The stoichiometry N is a count of units in the complex or per binding partner.

For data set [1], the target named is TTE^Δ110, TTE0866 with the N-terminal 110 residues truncated (Caldanaerobacter subterraneus subsp. tengcongensis). Nature of the data set: SEC; analytical SEC, Superdex 75 Increase 10/300 GL; 100 μL of protein solution (1.0 mg·mL^−1); 20 mM Tris–HCl (pH 8.0), 150 mM NaCl; masses from a calibration standard; self-association, dimer to monomers.
Assay in data set [2]: as above

As to “TTE^Δ110, TTE0866 with the N-terminal 110 residues truncated (domain or fragment)”, the stoichiometry N in data set [1] was found to be 2.
With “TTE^Δ110, TTE0866 with the N-terminal 110 residues truncated”, the “percent dimer (SEC peak area)” value in data set [2] is “the dimer‐to‐monomer percentage of TTE^Δ110 was 20% and 80%”.
